Values quoted from earlier work, collected in paper PMC3362950.

Target: Kv1.3 (UniProt P22001)
Sequence of UniProt P22001 (P22001 whole entry): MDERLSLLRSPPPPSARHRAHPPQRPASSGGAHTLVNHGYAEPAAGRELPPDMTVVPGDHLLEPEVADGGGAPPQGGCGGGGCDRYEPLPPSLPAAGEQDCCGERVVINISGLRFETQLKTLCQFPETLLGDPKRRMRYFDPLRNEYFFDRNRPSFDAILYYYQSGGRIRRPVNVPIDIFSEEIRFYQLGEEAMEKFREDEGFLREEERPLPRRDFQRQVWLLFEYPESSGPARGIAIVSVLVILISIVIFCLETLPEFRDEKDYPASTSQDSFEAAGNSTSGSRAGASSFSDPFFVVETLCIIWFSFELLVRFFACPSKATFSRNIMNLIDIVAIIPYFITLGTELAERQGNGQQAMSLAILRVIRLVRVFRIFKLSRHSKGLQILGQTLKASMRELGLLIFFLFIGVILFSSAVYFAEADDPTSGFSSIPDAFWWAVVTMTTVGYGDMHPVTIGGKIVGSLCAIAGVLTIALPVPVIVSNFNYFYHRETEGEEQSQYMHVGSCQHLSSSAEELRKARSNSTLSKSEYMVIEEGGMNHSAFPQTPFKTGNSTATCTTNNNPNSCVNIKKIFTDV

KTX (from UniProt P24662)
Kd: 0.01 nM
